The values below come from publication PMC3597662.

The target in the data set is T1, Cbp2Hb wild type (Hyperthermus butylicus, UniProt A2BLH2 1-103).
T1 sequence: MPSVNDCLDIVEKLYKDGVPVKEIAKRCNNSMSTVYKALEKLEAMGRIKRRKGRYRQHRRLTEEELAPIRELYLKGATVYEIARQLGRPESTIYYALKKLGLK
Briefly: NMR.

B1: CRISPR-1rHb 25 bp single repeat (dsDNA)
DNA 1: CTTGCAATTCTCTTTTGAGTTGTTC
DNA 2: GAACAACTCAAAAGAGAATTGCAAG
Regarding B1, the binding result is “binds”.
